Data published in the domain aggregation screens of Martell et al. (2025).

Assay: soluble fraction after stress (log2 fold change); higher = more stays soluble; pooled small domains, quantitative proteomics
Details: stress: pH 4
Outline: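 Pooled custom libraries of small protein domains were subjected to pH 4 and measured by high-throughput quantitative proteomics. The log2 fold change in soluble amount per domain is reported, higher values meaning more remained soluble. This is used as a measure of aggregation propensity.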

Sequence | soluble fraction (log2)
HMNDNTAINEFKKMVFTRMVHLQIDNAELSKLSGVTNSKILALKYGNSNTLKLGDIVKVAKTLNINLNDL | 0.094
HMNDPFVILGVSKDASQSEILEAYKQKRAYYQERVFDEGDEGAQAARMLTQLDDAYQQAMELSHES | 0.17
HMNDPIESLTPREREVLTLMAEGRTNAAIAAQLVVTEGAVEKHTQHIFAKLGLLPDSAVHRRVKAVLALLS | -0.637
HMNDPNAPITENQLKAIHVLLDKLKVDDNLKHAYIADVLQLDNEPETLKTLTKAQGSMAIERMQLLKDN | -0.42
HMNDQLIYSDFIRQVQDGQITEVTISGLNIAGTRSDGSVFNTLRPYIEDPKLIDDLLSHNVRIQGAE | -0.632
HMNDRERIGKRIAQLRMEAGISQYKLAELTGLAPGNIARIETGKYSTGIDILSKIGDALGYQLDFI | -0.414
HMNDRLAGMEGQRGEAATNFDQGEGKVKVGDTVWLAKQSDSTVIVEGDQIVVTGSENGLLKVRL | -0.453
HMNDTLGVNIKRLRKEKGMTQDEVAKAVYTTRYNILRYESGKMTPSSEVIERLEKALGVPTGSLAQ | -0.0881
HMNDTSLIIDNLMLKLGNNIKNFSEIYSLLRKNLAEYGEEFIKSKVDYVLKNFNDNIEENLKKLLTE | -0.601
HMNDVGKVLNQLGERDRMILLLTYWDELPLKEAARILEVSENNAKIILFRARSRFASLWSAGS | -0.794
HMNEAVVVPDVKGLTLDEADEFFKNSKLRYNVVDSVFSKDVAPGAIVELVPVAGSKVKENRIVFVTINAQ | -0.517
HMNEDTEDIKNINSLVNKLTENNFDIIRDSIVKLINKEHLIPYIIETIIEKSILHHRYVHLYVSILKE | -0.119
HMNEDYSSMVGKTGFALTILRPAGKIMIEEEVFDAVAINGYISKGQEVEVVRYENAQLYVKVK | -0.228
HMNEFGIPDKKLQDIETRVNSMSLEQLNAARSMLIDEQEALNSSTGSASSGRLKEIAAELSTIQKALIAIA | -0.0513
HMNEFNEVVPDSLEGERLDRLLAFIGNISRSEASNIIKGGEVLINGKVVTRPSFKVTLGNRVEFSIRD | -0.19
HMNEGETLYRLRAGDGRARLDKFLAAALPDISRTRFKGLIESGHVRVGGETITEPAYRVKSEAEVELTVPE | 0.0187
HMNEIALETAIEDVESFIQMQNRNLAFSIDEDTDRAVVTVRDSDSGDVIRQIPSEEVLALAERIQDLQQD | -0.485
HMNEIDDYDIQLLEYLSKGVSQEAMESVFKQAGITPNSKSTIEKRISKLKIYFKALNTTHLVSITKDLGL | -1.27
HMNEKEAEEAAEAQTEVPDVTGMAPAQAKNMLYQAGLSSEYRGEGETVSRQLPPAGETVNRGTKAVLYL | 0.2
HMNEKGTNSTINEITRISKPGRRVYVGSAEIPKVKSGRGLVLISTSKGVMTGAEAAKAKLGGELLLKV | 0.129
HMNEKMKEIGLRIKELRELSDISAQGMADHLKIPLETYQEYEDGKKDIPASILFEISQKMEVDMGLLLTGE | -0.253
HMNELTDKQILLFSNKLAHNIPFSSKYSKPGESYEEFAERLANELIDPQKVKLYKPYLEEVGFK | 0.112
HMNEMIFNQKKIGQFFMNPETNSPMIYPLELGHKMKIIELKNGWYNVTDEKTGLNGWVKEEDFGVTKPLDS | 0.0629
HMNENDENLRQQAIDASKEVRRWGEPVTLPPMNAHDRRIIHITLEGESDLQTESTGEGNFKSVVISLK | 0.0645
HMNEPSSYGYAISVALDRNGLGTVKGGTLYPLLARLEQAAHVETRWEAGDGGPGRKYYTITDSGRS | -0.41
HMNERLKQLRLSLNLNQEEFGKWLGISKSGVSDIESGRRKVTEQHIIMLSNHNISEKWLRTGEGEMFV | 0.0158
HMNETNKMPNLVNQTDSSAIAQLNAMELGLKITTKEESSETVLAGYVIRTEPAADTELTKNQAVTVYVS | 0.0693
HMNETTVPDVINQNISTGKIIIEDADLEYRIQYIPSEKSSSIGTIINSIPIYGKRVKSGTIVDLKVLG | -0.34

Sequence | soluble fraction (log2)
HMNETVTNQTVLDLLKEGFTSEEIIGAIENSSTRTITYDINFMRQLKAAGADVTLTTYLQKIAKKDM | -0.711
HMNEWSIDINLADEKQWTAKTKLSPAIIQNIIRYKNYLGGFTNLNQIKKVYGFTEANYYLLKPHLQLGK | -0.386
HMNFDLDSFKQRMTLDGLYFGNEKQDVIALNNLSERYQLTWFDVYQLAKETSSNHKILPKRILVKLQQ | 0.158
HMNFEIEVTENGKRIDSYLAEELDLSRSKVQKLIKQELVTVNGKVVSNNYNVKLGDTILVNDD | 0.154
HMNFFQEIGNSILIELNKKNWTQSMFAHKIGVSDEVFKQIVQGKKALNAVEIAKIANTLDVDPEKLLRK | -0.0391
HMNFTEAEQRFHFLEDQRQRGVLSLEQYRAELAQLRVTDAWGRLWMLQEQTGQWFVFHEGQWRPSQ | -0.266
HMNGEDVTDAIRLPQISQYASVVSAYPGVRAFLLEMQRDFARKGSVIMDGRDIGTVVLPEAEVKIFLT | 0.278
HMNGGPHYLRDVRTSLGLSQADLAKAVGTSANMIHYLESGERALTLKWIRRISEALNVSPMRLIN | -0.0552
HMNGLPDLSRYTGVSIVDGLASVGSDSSFAYRAKIAETLGISDYKGSAGQNLEMIRKLGGKV | -0.172
HMNGTGSVYKLSGKRRNPWRAVVTNGWAYNEEKGKLVQNRVTIGYYHTRDEAIQAIANYNSSP | -0.125
HMNGVFIMHTPDGKVLRTEEGEEAVITLFNWSGQLLWSKTSLGQLPLPEGTQGVLQVQYKSGDQHTIKT | -0.425
HMNHAPSLMRKIRRGLKEGRNPDDLLVNAKSISDYYYRSLSFYLLAPHFSSKSKQYKQVISLANS | -0.151
HMNHHTEQQLKALSNKVKDHRMRMRLLAVAHFKAGKNKADVARTLNVSRRMVNEWVANYFKGGVSALES | -0.047
HMNHLLYPNPANNFIWIKNSTSNTAVIYNLQGVMSKVEVSEEGKIDISRFSPGLYMIKQGERIYKFTIA | -0.358
HMNHLSYEQRLKIKEMLDGGFKKIDIARALGVHNATIYREIERGSVNGIYNPNKSEEQYRDHLSEK | 0.0704
HMNHYIGVDRAKEIALNHANLSETDVVFTKEKLENDDGGAEYEIEFHSGRTEYDYTIDAASGNIIEYDVDY | -0.17
HMNIDGLIGKKALVTADIDNVNSKGQIKINGLEWTARSVDDEPIPMGTEVEITAISGVKAIVRKG | 0.309
HMNIEANLEDILRRAMPSAAKLILENSLNINKIIGTGKEGRITKGDVLLYLKDKNLILENILN | 0.0861
HMNIEEAESILKEIKTVLTDKEYEVYTLRAKGFTYQEIASLLNTTTKSVDGALSRIKTKINNIK | 0.0204
HMNIFKLYEENIGPLTPMIADILKEDEAEFPDYWIREAIEIAVKKNARNWKYVHAVLESWQKE | -0.259
HMNILKAPMPGLILDVIVKESDLVKKGDPVIILEAMKMENILSSPVDGIVKEIKVNPQQTVEKNNTLIKFE | -0.469
HMNILNFSENIIKLRHKKGITQEELADFVGVTKASVSKWETKQSLPDIMLLPRLAAYFDVTVDELLGYEP | -0.115
HMNINHEINIKSKKKISILENNPNLSQFYLTKNPDQYNYNLVFSDKSELNKLKEKLESDNEVEDIDIRYG | -0.195
HMNINTEMEKVSYSLGVNIASSLKQQGWELDAKSLSDAFVDVFNGNKLLIDEKEASSILQNYQQKIANK | -1.1
HMNIQKYFAGREQFIELLEAVGIRTLEQFASADPSTVLPELHQAKRMLKLQTEIPSAPVFREWVNQALS | -0.901
HMNIQPAMLNAANGGVAWKERGISMSQIMKRNAHTAEGSQKLWDYAFENFFQKNIDAGNIRDDR | -0.237
HMNIVKGDTTANVRVVQQRLYNLGYYTYKVDGIWGTRTKTAVKKFQKDKGLVADGIVGAKTEKALGITLT | -0.252
